The results in this text go back to article PMC5450233, “SKIP controls lysosome positioning using a composite kinesin-1 heavy and light chain-binding domain” (Journal of Cell Science, 2017).

B1: SKIP(1-310) (domain or fragment, UniProt Q8IWE5 1-310, looked up)
chain: MEPGEVKDRILENISLSVKKLQSYFAACEDEIPAIRNHDKVLQRLCEHLDHALLYGLQDLSSGYWVLVVHFTRREAIKQIEVLQHVATNLGRSRAWLYLALNENSLESYLRLFQENLGLLHKYYVKNALVCSHDHLTLFLTLVSGLEFIRFELDLDAPYLDLAPYMPDYYKPQYLLDFEDRLPSSVHGSDSLSLNSFNSVTSTNLEWDDSAIAPSSEDYDFGDVFPAVPSVPSTDWEDGDLTDTVSGPRSTASDLTSSKASTRSPTQRQNPFNEEPAETVSSSDTTPVHTTSQEKEEAQALDPPDACTEL
notes: SKIP (PLEKHM2), residues 1-310; also called SKIP(1-310) with GST removed by 3C protease; source: E. coli, purified as a GST fusion, GST cleaved with 3C protease
B2: GST–KHC(815-917) (domain or fragment)
chain: not shown
notes: source: E. coli BL21(DE3), purified (glutathione–Sepharose beads)
B3: GST–KHC(876-917) (domain or fragment)
chain: not shown
notes: as for B2
B4: GST–KHC(815-955) (domain or fragment)
chain: not shown
notes: 3C protease site between GST and KHC (pMW-GST); source: E. coli BL21(DE3), purified (glutathione–Sepharose beads)

Common to all, as to details: both partners purified
The experiment “GST–KHC(815-955)” deals with B4. As to the kind of experiment: pull-down; GST–KHC(815-955) (0.5 nmol) on glutathione beads incubated with increasing concentrations of SKIP(1-310) in solution (up to 3.5 μM); SDS-PAGE, Coomassie, densitometry; one-site specific binding model with Hill slope; non-equilibrium, value to be interpreted with caution.
In experiment [1] the target is B1. As to the kind of experiment: pull-down; GST–KHC truncations (0.5 nmol) on glutathione–Sepharose beads incubated with 300 μl of 1.2 μM SKIP(1-310) for 2 h at 4°C; 25 mM HEPES pH 7.5, 150 mM NaCl, 5 mM β-mercaptoethanol; Coomassie-stained SDS-PAGE.
Experiment [2] addresses B1. Kind of experiment: pull-down; GST–KHC(815-955) (0.5 nmol) on glutathione beads incubated with increasing concentrations of SKIP(1-310) in solution (up to 3.5 μM); SDS-PAGE, Coomassie, densitometry; one-site specific binding model with Hill slope; non-equilibrium, value to be interpreted with caution.

GST–KHC(815-955), sequence (P56536 815-955): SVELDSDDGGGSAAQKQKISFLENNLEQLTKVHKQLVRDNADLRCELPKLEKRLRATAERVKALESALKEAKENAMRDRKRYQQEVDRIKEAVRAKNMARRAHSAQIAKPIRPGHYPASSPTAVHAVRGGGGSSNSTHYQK

A word on the stoichiometry N: it is a count of units in the complex or per binding partner. For B1, the “stoichiometry N” value with GST–KHC(815-955) turned out to be 1.
In the case of B2, the binding result with SKIP(1-310) [1] was “binds”.
Turning to B3, the binding result with SKIP(1-310) [1] was “binds”.
For orientation: Kd means the free concentration of one partner at which half of the binding sites on the other are occupied at equilibrium, for simple one-to-one binding. As for B4, the Kd in the experiment with SKIP(1-310) [2] was about 1500 nM.
